B1: LINE1-mini (parent)
chain: GGCAGAGCUCAACACAGCGUGGCAAAGUGGCUGUGGCUAGACUGCC

Variants of: B1
Assay: self-cleavage, relative activity (ratio to wild type); higher = more cleavage; in vitro, sequencing; the parent is a self-cleaving ribozyme

Variant	self-cleavage
GGCAGAGCGCAACCCAGCGUGGCAAAGUGGCUGUGGCUAGACUGCC [U9G A14C]	0.2
GGCAGAGCGCAAGACAGCGUGGCAAAGUGGCUGUGGCUAGACUGCC [U9G C13G]	0.08
GGCAGAGCGCAAAACAGCGUGGCAAAGUGGCUGUGGCUAGACUGCC [U9G C13A]	0.19
GGCAGAGCGCAAUACAGCGUGGCAAAGUGGCUGUGGCUAGACUGCC [U9G C13U]	0.11
GGCAGAGCCCAACACAGCGUGUCAAAGUGGCUGUGGCUAGACUGCC [U9C G22U]	0.02
GGCAGAGCCCAACACAGCGUGCCAAAGUGGCUGUGGCUAGACUGCC [U9C G22C]	0.03
GGCAGAGCCCAACACAGCGUGACAAAGUGGCUGUGGCUAGACUGCC [U9C G22A]	0.04
GGCAGAGCCCAACACAGCGUGGCAAAGUGGCUGUGGCAAGACUGCC [U9C U38A]	0.03
GGCAGAGCCCAACACAGCGUGGCAAAGUGGCUGUGGCCAGACUGCC [U9C U38C]	0.07
GGCAGAGCCCAACACAGCGUGGCAAAGUGGCUGUGGCGAGACUGCC [U9C U38G]	0.04
GGCAGAGCCCAACACAGCGUGGCAAAGUUGCUGUGGCUAGACUGCC [U9C G29U]	0.03
GGCAGAGCCCAACACAGCGUGGCAAAGUAGCUGUGGCUAGACUGCC [U9C G29A]	0.02
GGCAGAGCCCAACACAGCGUGGCAAAGUCGCUGUGGCUAGACUGCC [U9C G29C]	0.02
GGCAGAGCGCAACACAGCGUGGCAAAGUGGCUGUGGCUAGACUGCC [U9G]	0.15
GGCAGAGCCCAACACAGCGUGGCAAAGUGUCUGUGGCUAGACUGCC [U9C G30U]	0.02
GGCAGAGCCCAACACAGCGUGGCAAAGUGCCUGUGGCUAGACUGCC [U9C G30C]	0.04
GGCAGAGCCCAACACAGCGUGGCAAAGUGACUGUGGCUAGACUGCC [U9C G30A]	0.03
GGCAGAGCGCAACACAGCGUGGCAAAGUGGCUGUGGCUAGACUGGC [U9G C45G]	0.21
GGCAGAGCGCAACACAGCGUGGCAAAGUGGCUGUGGCUAGACUGUC [U9G C45U]	0.16

Variant	self-cleavage
GGCAGAGCGCAACACAGCGUGGCAAAGUGGCUGUGGCUAGACUGAC [U9G C45A]	0.11
GGCAGAGCGCAACACAGCGUGGCAGAGUGGCUGUGGCUAGACUGCC [U9G A25G]	0.06
GGCAGAGCGCAACACAGCGUGGCACAGUGGCUGUGGCUAGACUGCC [U9G A25C]	0.13
GGCAGAGCGCAACACAGCGUGGCAUAGUGGCUGUGGCUAGACUGCC [U9G A25U]	0.14
GGCAGAGCCCAACACAGCGUGGCAAAAUGGCUGUGGCUAGACUGCC [U9C G27A]	0.03
GGCAGAGCCCAACACAGCGUGGCAAAUUGGCUGUGGCUAGACUGCC [U9C G27U]	0.04
GGCAGAGCCCAACACAGCGUGGCAAACUGGCUGUGGCUAGACUGCC [U9C G27C]	0.03
GGCAGAGCGCAACACAGCGUGGCAAAGUGGCUGUGGCUGGACUGCC [U9G A39G]	0.08
GGCAGAGCGCAACACAGCGUGGCAAAGUGGCUGUGGCUCGACUGCC [U9G A39C]	0.05
GGCAGAGCCCAACACAGCGUGGCAAAGGGGCUGUGGCUAGACUGCC [U9C U28G]	0.04
GGCAGAGCCCAACACAGCGUGGCAAAGCGGCUGUGGCUAGACUGCC [U9C U28C]	0.05
GGCAGAGCCCAACACAGCGUGGCAAAGAGGCUGUGGCUAGACUGCC [U9C U28A]	0.03
GGCAGAGCGCUACACAGCGUGGCAAAGUGGCUGUGGCUAGACUGCC [U9G A11U]	0.03
GGCAGAGCGCGACACAGCGUGGCAAAGUGGCUGUGGCUAGACUGCC [U9G A11G]	0.02
GGCAGAGCGCCACACAGCGUGGCAAAGUGGCUGUGGCUAGACUGCC [U9G A11C]	0.02
GGCAGAGCGCAACACAGCGUGGCAAAGUGGCUGUGGCUAGACUGCA [U9G C46A]	0.1
GGCAGAGCGCAACACAGCGUGGCAAAGUGGCUGUGGCUAGACUGCU [U9G C46U]	0.11
GGCAGAGCGCAACACAGCGUGGCAAAGUGGCUGUGGCUAGACUGCG [U9G C46G]	0.05
GGCAGAGCGCAACACAGCGUGGCAAAGUGGCUGUGGCUAGAUUGCC [U9G C42U]	0.05

Variant	self-cleavage
GGCAGAGCGCAACACAGCGUGGCAAAGUGGCUGUGGCUAGAGUGCC [U9G C42G]	0.06
GGCAGAGCGCAACACAGCGUGGCAAAGUGGCUGUGGCUAGAAUGCC [U9G C42A]	0.08
GGCAGAGCCCAACACAGCGCGGCAAAGUGGCUGUGGCUAGACUGCC [U9C U20C]	0.02
GGCAGAGCCCAACACAGCGAGGCAAAGUGGCUGUGGCUAGACUGCC [U9C U20A]	0.04
GGCAGAGCCCAACACAGCGGGGCAAAGUGGCUGUGGCUAGACUGCC [U9C U20G]	0.03
GGCAGAGCGCAACACAGCGUGGCAAAGUGGCUGUGGUUAGACUGCC [U9G C37U]	0.15
GGCAGAGCGCAACACAGCGUGGCAAAGUGGCUGUGGAUAGACUGCC [U9G C37A]	0.22
GGCAGAGCGCAACACAGCGUGGCAAAGUGGCUGUGGGUAGACUGCC [U9G C37G]	0.05
GGCAGAGCCCAACACAGCGUGGCAAAGUGGCUGUGGCUAGACUGCU [U9C C46U]	0.03
GGCAGAGCGCAACACAGUGUGGCAAAGUGGCUGUGGCUAGACUGCC [U9G C18U]	0.09
GGCAGAGCGCAACACAGAGUGGCAAAGUGGCUGUGGCUAGACUGCC [U9G C18A]	0.07
GGCAGAGCGCAACACAGGGUGGCAAAGUGGCUGUGGCUAGACUGCC [U9G C18G]	0.04
GGCAGAGCCCAACACAGCGUGGCAAAGUGGCUGUGGCUACACUGCC [U9C G40C]	0.03
GGCAGAGCCCAACACAGCGUGGCAAAGUGGCUGUGGCUAAACUGCC [U9C G40A]	0.03
GGCAGAGCCCAACACAGCGUGGCAAAGUGGCUGUGGCUAUACUGCC [U9C G40U]	0.03
GGCAGAGCGCAACACAGCGUGGCGAAGUGGCUGUGGCUAGACUGCC [U9G A24G]	0.14
GGCAGAGCGCAACACAGCGUGGCCAAGUGGCUGUGGCUAGACUGCC [U9G A24C]	0.07
GGCAGAGCGCAACACAGCGUGGCUAAGUGGCUGUGGCUAGACUGCC [U9G A24U]	0.18
